According to patent US6395526B1, “DNA polymerase” (Takara Shuzo Co., Ltd., priority 1995, dated 2002):

Experiments:
λ-DNA = settings: reported, enzyme used alone; cited from earlier work
[1] = tested on: substrate DNA (template-primer); test: DNA polymerase activity on different forms of substrate DNA (template-primer); format: biochemical
Protocol: The DNA polymerase activity was assayed using calf thymus DNA (manufactured by Worthington) activated by DNase I treatment (activated DNA) as a substrate. DNA activation and assay of DNA polymerase activity were carried out by the method described in DNA Polymerase from Escherichia coli, 263-276 (authored by C. C. Richardson), published by Harper & Row, edited by D. R. Davis.
An assay of enzyme activity was carried out by the following method. Specifically, 50 μl of a reaction solution [20 mM Tris-HCl (pH 7.7), 15 mM MgCl2, 2 mM 2-mercaptoethanol, 0.2 mg/ml activated DNA, 40 μM each of dATP, dCTP, dGTP and dTTP, 60 nM [^3H]-dTTP (manufactured by Amersham)], containing a sample for assaying its activity, was prepared and reacted at 75° C. for 15 minutes. A 40 μl portion of this reaction mixture was then spotted onto a DE paper (manufactured by Whatman) and washed with 5% Na2HPO4 five times. The remaining radioactivity on the DE paper was assayed using a liquid scintillation counter. The amount of enzyme which incorporated 10 nmol of [^3H]-dTMP per 30 minutes into the substrate DNA, assayed by the above-described enzyme activity assay method, was defined as one unit of the enzyme.
Next, in order to compare the selectivity of the DNA polymerase of the present invention for different forms of substrate DNA, the following template-primer was examined. Aside from the activated DNA used for conventional assay of the activity, those prepared as substrates include a thermal-denatured DNA prepared by treating the activated DNA at 85° C. for 5 minutes; M13-HT Primer prepared by annealing a 45-base synthetic deoxyribooligonucleotide of the sequence as shown by SEQ ID NO:6 in Sequence Listing as a primer to the M13 phage single stranded DNA (M13mp18 ssDNA, manufactured by Takara Shuzo Co., Ltd.); M13-RNA Primer prepared by annealing a 17-base synthetic ribooligonucleotide of the sequence as shown by SEQ ID NO:7 in Sequence Listing as a primer to the same M13 phage single stranded DNA; Poly dA-Oligo dT prepared by mixing polydeoxyadenosine (Poly dA, manufactured by Pharmacia) and oligodeoxythymidine (Oligo dT, manufactured by Pharmacia) in a 20:1 molar ratio; and Poly A-Oligo dT prepared by mixing polyadenosine (Poly A, manufactured by Pharmacia) and oligodeoxythymidine in a 20:1 molar ratio.
The DNA polymerase activity was assayed using these substrates in place of the activated DNA. The relative activity of each substrate when the activity obtained in the case of using an activated DNA as a substrate is defined as 100 is shown in Table 1. For comparison, the Pfu DNA polymerase and the Taq DNA polymerase derived from Thermus aquaticus (TaKaRa Taq, manufactured by Takara Shuzo Co., Ltd.) were also examined in the same manner.

M13-HT Primer = test: Primer extension reaction (autoradiogram, FIG. 6); format: biochemical; settings: activated DNA added in great excess
Protocol: The primer extension activity was further investigated extensively. The M13-HT Primer, previously labeled with [γ-^32P]-ATP (manufactured by Amersham) and T4 polynucleotide kinase (manufactured by Takara Shuzo Co., Ltd.) at the 5′-end, was used as a substrate. Ten microliters of a reaction mixture [20 mM Tris-HCl (pH 7.7), 15 mM MgCl2, 2 mM 2-mercaptoethanol, 270 μM each of dATP, dGTP, dCTP and dTTP] containing the above substrate in a final concentration of […] and various DNA polymerases in amounts providing 0.05 units of activity as assayed with the activated DNA as a substrate was reacted at 75° C. for 1, 2, 3, or 4 minutes. After termination of the reaction, 2 μl of a reaction stop solution (95% […], 20 mM EDTA, 0.05% bromophenol blue, 0.05% xylenecyanol) was added, subjected to thermal denaturation treatment at 95° C. for 3 minutes. Two microliters of the reaction mixture was then subjected to electrophoresis using polyacrylamide gel containing 8 M urea and subsequently subjected to a preparation of autoradiogram. Also, in order to examine the extension activity in the presence of the activated DNA as a competitor substrate, the activated DNA was added to the above reaction mixture to a final concentration of […], and subjected to a preparation of an autoradiogram by the same procedures as described above.
In the figure, Pol, Pfu, and Taq show the results for the DNA polymerase of the present invention, the Pfu DNA polymerase and the Taq DNA polymerase, respectively. In addition, 1, 2, 3, and 4 each indicates reaction time (min). In the figure, the representation “−” and “+” show the results obtained in the absence and in the presence, respectively, of the activated DNA. The lanes G, A, T, and C at the left end of the figure also show the results of electrophoresis of the reaction products obtained by a chain termination reaction by the dideoxy method using the same substrate as above, which were used to estimate the length of each extension product.

B1: Pfu DNA Polymerase: α-type DNA polymerase derived from Pyrococcus furiousus, manufactured by Stratagene (protein, UniProt P61875 1-775, looked up)
DNA polymerase: MILDVDYITEEGKPVIRLFKKENGKFKIEHDRTFRPYIYALLRDDSKIEEVKKITGERHGKIVRIVDVEKVEKKFLGKPITVWKLYLEHPQDVPTIREKVREHPAVVDIFEYDIPFAKRYLIDKGLIPMEGEEELKILAFDIETLYHEGEEFGKGPIIMISYADENEAKVITWKNIDLPYVEVVSSEREMIKRFLRIIREKDPDIIVTYNGDSFDFPYLAKRAEKLGIKLTIGRDGSEPKMQRIGDMTAVEVKGRIHFDLYHVITRTINLPTYTLEAVYEAIFGKPKEKVYADEIAKAWESGENLERVAKYSMEDAKATYELGKEFLPMEIQLSRLVGQPLWDVSRSSTGNLVEWFLLRKAYERNEVAPNKPSEEEYQRRLRESYTGGFVKEPEKGLWENIVYLDFRALYPSIIITHNVSPDTLNLEGCKNYDIAPQVGHKFCKDIPGFIPSLLGHLLEERQKIKTKMKETQDPIEKILLDYRQKAIKLLANSFYGYYGYAKARWYCKECAESVTAWGRKYIELVWKELEEKFGFKVLYIDTDGLYATIPGGESEEIKKKALEFVKYINSKLPGLLELEYEGFYKRGFFVTKKRYAVIDEEGKVITRGLEIVRRDWSEIAKETQARVLETILKHGDVEEAVRIVKEVIQKLANYEIPPEKLAIYEQITRPLHEYKAIGPHVAVAKKLAAKGVKIKPGMVIGYIVLRGDGPISNRAILAEEYDPKKHKYDAEYYIENQVLPAVLRILEGFGYRKEDLRYQKTRQVGLTSWLNIKKS
strand length of DNA amplifiable by PCR (λ-DNA): at most 3 kbp | Relative Activity ([1]; substrate M13-HT primer, activated DNA = 100): 23 | Relative Activity ([1]; substrate M13-RNA primer, activated DNA = 100): 0.49 | Relative Activity ([1]; substrate activated DNA (defined as 100)): 100 | Relative Activity ([1]; substrate poly dA-Oligo dT, activated DNA = 100): 390 | Relative Activity ([1]; substrate thermal-denatured DNA, activated DNA = 100): 87 | inhibition of primer extension by activated DNA as competitor substrate (M13-HT Primer): strongly inhibited
